These results are taken from PMC12204462.

The test system of the data set is AsCas12a. Put plainly: BLI. Conditions: not stated in material.
cDNA with 5' handle gave a Kd of less than 37 nM.
Under crRNA (BLI) stands 3.7 nM; under ΨDNA (cDNA with 3' handle; BLI), 24.5 nM.

For orientation: Kd means the constant that tells how readily two partners part at equilibrium.
